In patent US20230265208A1 (Dana-Farber, published 2023) one finds EC50 and FACS titration signal data, which are given here for six molecules.

The target of assay [1] is T1, MUC1 on HCT116/MUC1 cells (human, UniProt P15941 24-1255).
T1 construct: whole, on cells; Human colon cancer cell line engineered to express MUC1
Put plainly: flow cytometry titration on HCT116/MUC1 cells. On the procedure: (§1) FACS titration of humanized antibodies. For affinity ranking of humanized antibodies to HCT116/MUC1 cells (a human colon cancer cell line engineered to express MUC1), the purified antibodies were subject to FACs titration. In brief, HCT116/MUC1 cells were cultured and harvested by centrifugation. About 2.5×10⁵ cells per well were washed with PBS twice and incubated in 200 μl of serial dilutions of antibodies for 30 min at 4° C. After washing with PBS., secondary antibody (3 μg Goat anti-Human IgG(H+L) I Fluor 647) was added to the cells and incubated for 30 min at 4° C. After washing with PBS, cells were analyzed for binding (EC₅₀) by using FACS Calibur (BD Bioscience, San Jose, Calif.) and Flowjo software.
(§2) FACS titration of humanized antibodies. Each of the 7 antibodies was titrated for its binding capacity to HCT116/MUC1 cells at various concentrations and the results are mentioned in Table 8 and with a graphical representation in FIG. 5.
In general terms: In flow cytometry, cells or beads pass a laser one at a time.
T1 sequence (P15941 24-1255): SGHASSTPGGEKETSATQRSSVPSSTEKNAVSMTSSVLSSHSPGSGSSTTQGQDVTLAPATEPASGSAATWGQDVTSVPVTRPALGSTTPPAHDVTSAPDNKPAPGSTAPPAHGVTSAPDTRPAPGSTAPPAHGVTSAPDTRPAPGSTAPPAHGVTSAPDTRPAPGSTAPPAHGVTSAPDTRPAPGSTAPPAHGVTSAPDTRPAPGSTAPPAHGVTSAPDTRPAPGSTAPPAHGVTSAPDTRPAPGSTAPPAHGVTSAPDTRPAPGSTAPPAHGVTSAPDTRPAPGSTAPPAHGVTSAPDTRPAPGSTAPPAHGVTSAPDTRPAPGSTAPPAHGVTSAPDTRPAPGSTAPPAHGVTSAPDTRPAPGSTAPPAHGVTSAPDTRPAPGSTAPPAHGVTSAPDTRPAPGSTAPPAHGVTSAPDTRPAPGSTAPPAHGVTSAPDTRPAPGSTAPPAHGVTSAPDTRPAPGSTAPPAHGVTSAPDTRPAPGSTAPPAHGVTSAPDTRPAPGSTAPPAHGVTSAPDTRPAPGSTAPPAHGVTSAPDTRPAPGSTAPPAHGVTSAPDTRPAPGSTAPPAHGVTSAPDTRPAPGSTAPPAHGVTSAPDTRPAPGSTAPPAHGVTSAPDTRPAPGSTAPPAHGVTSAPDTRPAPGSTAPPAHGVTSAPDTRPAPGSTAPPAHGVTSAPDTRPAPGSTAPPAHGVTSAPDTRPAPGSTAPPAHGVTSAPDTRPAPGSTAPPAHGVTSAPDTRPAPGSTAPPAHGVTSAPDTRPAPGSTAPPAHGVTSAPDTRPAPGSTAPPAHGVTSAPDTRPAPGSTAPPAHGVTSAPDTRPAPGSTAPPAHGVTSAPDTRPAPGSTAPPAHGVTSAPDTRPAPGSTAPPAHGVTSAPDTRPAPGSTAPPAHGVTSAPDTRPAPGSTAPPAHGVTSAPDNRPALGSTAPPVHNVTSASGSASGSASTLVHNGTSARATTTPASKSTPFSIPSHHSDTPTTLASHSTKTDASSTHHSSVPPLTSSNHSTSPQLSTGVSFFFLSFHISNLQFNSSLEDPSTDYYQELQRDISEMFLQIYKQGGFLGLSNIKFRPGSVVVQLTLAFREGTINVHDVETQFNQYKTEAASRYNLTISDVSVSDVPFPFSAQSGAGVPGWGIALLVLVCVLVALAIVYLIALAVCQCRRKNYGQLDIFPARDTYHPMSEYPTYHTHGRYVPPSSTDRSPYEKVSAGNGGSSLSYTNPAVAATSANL

The target in assay [2] is T2, MUC1 on HCT116/MUC1 cells (human, UniProt P15941 24-1255). Nature of the assay: flow cytometry on HCT116/MUC1 cells; antibody at 100 nM.
T2 sequence (P15941 24-1097, chain 1 of 2): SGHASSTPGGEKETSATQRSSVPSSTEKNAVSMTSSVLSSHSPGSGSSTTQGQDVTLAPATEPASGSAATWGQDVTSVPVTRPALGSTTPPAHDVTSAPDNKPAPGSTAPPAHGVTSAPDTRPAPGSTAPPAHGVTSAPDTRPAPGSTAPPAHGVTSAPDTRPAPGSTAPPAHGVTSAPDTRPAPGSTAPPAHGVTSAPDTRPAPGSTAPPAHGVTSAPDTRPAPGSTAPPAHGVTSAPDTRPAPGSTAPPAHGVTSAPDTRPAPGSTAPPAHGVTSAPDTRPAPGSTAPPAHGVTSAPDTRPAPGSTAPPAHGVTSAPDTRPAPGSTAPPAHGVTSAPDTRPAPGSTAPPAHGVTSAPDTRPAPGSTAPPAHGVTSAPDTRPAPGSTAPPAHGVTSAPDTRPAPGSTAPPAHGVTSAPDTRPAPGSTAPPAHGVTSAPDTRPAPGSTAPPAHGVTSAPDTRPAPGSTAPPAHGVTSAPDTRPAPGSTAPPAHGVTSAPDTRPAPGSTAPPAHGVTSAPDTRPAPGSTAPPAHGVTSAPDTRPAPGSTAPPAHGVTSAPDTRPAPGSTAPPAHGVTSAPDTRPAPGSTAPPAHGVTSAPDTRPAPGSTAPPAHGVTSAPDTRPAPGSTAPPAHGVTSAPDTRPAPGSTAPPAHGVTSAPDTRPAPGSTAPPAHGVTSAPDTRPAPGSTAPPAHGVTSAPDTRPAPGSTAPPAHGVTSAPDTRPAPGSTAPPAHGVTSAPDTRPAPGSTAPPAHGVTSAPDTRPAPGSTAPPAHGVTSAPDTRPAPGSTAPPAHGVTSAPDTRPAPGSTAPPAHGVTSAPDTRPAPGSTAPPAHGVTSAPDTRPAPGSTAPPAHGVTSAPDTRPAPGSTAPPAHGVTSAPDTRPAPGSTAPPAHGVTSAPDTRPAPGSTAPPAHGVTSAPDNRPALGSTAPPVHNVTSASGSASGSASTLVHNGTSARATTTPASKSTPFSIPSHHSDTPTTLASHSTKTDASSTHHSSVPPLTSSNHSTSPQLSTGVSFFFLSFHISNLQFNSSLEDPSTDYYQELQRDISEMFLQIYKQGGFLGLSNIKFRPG
T2 sequence (P15941 1098-1255, chain 2 of 2): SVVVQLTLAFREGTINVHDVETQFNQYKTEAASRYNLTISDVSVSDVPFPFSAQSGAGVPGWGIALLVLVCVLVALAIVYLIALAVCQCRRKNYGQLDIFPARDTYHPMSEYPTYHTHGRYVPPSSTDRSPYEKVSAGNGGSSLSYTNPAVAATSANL
The target in assay [3] is T2, MUC1 on HCT116/MUC1 cells. Put plainly: flow cytometry on HCT116/MUC1 cells; antibody at 1.234568 nM.
The target of assay [4] is T2, MUC1 on HCT116/MUC1 cells. Put plainly: flow cytometry on HCT116/MUC1 cells; antibody at 3.703704 nM.
In assay [5] the target is T2, MUC1 on HCT116/MUC1 cells. Put plainly: flow cytometry on HCT116/MUC1 cells; antibody at 0.411523 nM.
In assay [6] the target is T2, MUC1 on HCT116/MUC1 cells. Put plainly: flow cytometry on HCT116/MUC1 cells; antibody at 0.045725 nM.
For assay [7], the target named is T2, MUC1 on HCT116/MUC1 cells. Put plainly: flow cytometry titration on HCT116/MUC1 cells. On the procedure:
as §1, §2

Assay [8] has as its target T2, MUC1 on HCT116/MUC1 cells. Nature of the assay: flow cytometry on HCT116/MUC1 cells; antibody at 300 nM.
The target of assay [9] is T2, MUC1 on HCT116/MUC1 cells. Put plainly: flow cytometry on HCT116/MUC1 cells; antibody at 0.015242 nM.
Assay [10] deals with T2, MUC1 on HCT116/MUC1 cells. Put plainly: flow cytometry on HCT116/MUC1 cells; antibody at 0.137174 nM.
Assay [11] deals with T2, MUC1 on HCT116/MUC1 cells. Put plainly: flow cytometry on HCT116/MUC1 cells; antibody at 11.11111 nM.
The target of assay [12] is T2, MUC1 on HCT116/MUC1 cells. Nature of the assay: flow cytometry on HCT116/MUC1 cells; antibody at 33.33333 nM.

B1: Chimeric IgG (antibody, V domains shown)
VH: QVQLQQSGAELMKPGASVKISCKAIGFTFNYFWIEWVKQRPGHGLEWIGEILPGTGSTNYNEKFKGKAIFTADTSSNTAYMQLRSLTSEDSAVYYCVRYDYTSSMDYWGQGTSVTVSS
VL: DIVLTQSPGSLAVSLGQSVTISCRASESVQYSGTSLMHWYQQKPGQPPKLLIYGASNVETGVPARFSGSGSGTDFSLNIHPVEEDDIAMYFCQQNWKVPWTFGGGTKLEIKR
notes: Chimera of the parental mouse antibody with a human Fc (captured by anti-human Fc); also called chimeric antibody; parent chimeric antibody
As a reminder, the EC50 is the midpoint of the concentration-response curve. Read a high EC50 as a less potent agent. B1: a half-maximal response in [1] (EC50) required 6.08 nM. This counts as single-digit nanomolar.

B2: VH5 + VL3 (antibody, human IgG1, kappa, V domains shown)
VH: EVQLVQSGAEVKKPGESLKISCKGSGFTFNYFWIEWVRQMPGKGLEWMGEILPGTGSTNYNEKFKGQVTISADKSISTAYLQWSSLKASDTAMYYCARYDYTSSMDYWGQGTLVTVSS
VL: EIVLTQSPATLSLSPGERATLSCRASESVQYSGTSLMHWYQQKPGQAPRLLIYGASNVETGIPARFSGSGSGTDFTLTISSLEPEDFAVYYCQQNWKVPWTFGQGTKVEIKR
notes: Full-length humanized IgG expressed in HEK293 and purified on protein A. Constant regions not specified; also called #23 (inferred from 5x5 numbering)
B2 came in with an EC50 in assay [1] of 12.2 nM.

B3: VH1 + VL3 (antibody, V domains shown)
VH: QVQLVQSGAEVKKPGSSVKVSCKASGYAFSNFWMNWVRQAPGQGLEWMGQIYPGDGDTNYNGKFKGRVTITADKSTSTAYMELSSLRSEDTAVYYCARSYYRSAWFAYWGQGTLVTVSS
VL: EIVLTQSPATLSLSPGERATLSCRASQSIGTSIHWYQQKPGQAPRLLIYYASESISGIPARFSGSGSGTDFTLTISSLEPEDFAVYYCQQSNNWPLTFGGGTKVEIK
As to B3, the FACS titration signal in assay [2] came out at 41.7; in assay [3], 7.09; in [4], 10.4; in assay [5], 6.22; in [6], 8.96; in assay [8], 42. In addition, the FACS titration signal in assay [9] was 5.76; in assay [10], 9.47; in assay [11], 20.2; in assay [12], 41. The same molecule displayed an EC50 in assay [7] of 13.2 nM.

B4: VH2 + VL3 (antibody, V domains shown)
VH: QVQLVQSGAEVKKPGASVKVSCKASGYAFSNFWMNWVRQAPGQGLEWMGQIYPGDGDTNYNGKFKGRVTMTRDTSTSTVYMELSSLRSEDTAVYYCARSYYRSAWFAYWGQGTLVTVSS
VL: EIVLTQSPATLSLSPGERATLSCRASQSIGTSIHWYQQKPGQAPRLLIYYASESISGIPARFSGSGSGTDFTLTISSLEPEDFAVYYCQQSNNWPLTFGGGTKVEIK
For the molecule B4, the FACS titration signal in assay [2] stood at 43.8; in assay [3] it was 10.6; in [4], 13.9; in assay [5], 6.48; in assay [6], 5.46; in assay [8], 44.1. For the same molecule, the FACS titration signal worked out at 8.96 in assay [9], 9.04 in assay [10], 21.5 in assay [11] and 43 in [12]. In addition, in assay [7], the EC50 is 13.3 nM.

B5: VH5 + VL2 (antibody, V domains shown)
VH: EVQLVQSGAEVKKPGESLKISCKGSGYAFSNFWMNWVRQMPGKGLEWMGQIYPGDGDTNYNGKFKGQVTISADKSISTAYLQWSSLKASDTAMYYCARSYYRSAWFAYWGQGTLVTVSL
VL: EIVMTQSPATLSVSPGERATLSCRASQSIGTSIHWYQQKPGQAPRLLIYYASESISGIPARFSGSGSGTEFTLTISSLQSEDFAVYYCQQSNNWPLTFGGGTKVEIK
For the molecule B5, the FACS titration signal in assay [2] turned out to be 48.9; in [3] it was 11.8; in [4], 17.3; in assay [5], 9.71; in assay [6], 6.76; in [8], 46.3. In addition, the FACS titration signal in assay [9] came to 5.88; in [10], 9.2; in assay [11], 33.4; in [12] it was 48.1. Besides, it took 7.69 nM to reach a half-maximal effect in [7] (EC50).

B6: VH1 + VL4 (antibody, V domains shown)
VH: QVQLVQSGAEVKKPGSSVKVSCKASGYAFSNFWMNWVRQAPGQGLEWMGQIYPGDGDTNYNGKFKGRVTITADKSTSTAYMELSSLRSEDTAVYYCARSYYRSAWFAYWGQGTLVTVSS
VL: AIQLTQSPSSLSASVGDRVTITCRASQSIGTSIHWYQQKPGKAPKLLIYYASESISGVPSRFSGSGSGTDFTLTISSLQPEDFATYYCQQSNNWPLTFGGGTKVEIK
For B6, the FACS titration signal is 56.2 in [2]; 7.61 in assay [3]; 16.6 in assay [4]; 10.1 in assay [5]; 5.99 in [6]; 53.9 in assay [8]. Also, the FACS titration signal in assay [9] was found to be 5.73; in [10], 5.5; in assay [11], 32.3; in assay [12] it was 57.8. The molecule also came in with an EC50 in [7] of 9.8 nM.
